From patent US20200085917A1

Experiments:
Experiment in all cases: GST pull-down, LC-MS/MS
[1] = target: Fis1_IPI:IPI00132217.1 (mouse) (UniProt Q9CQ92)
[2] = target: Synj2bp_IPI:IPI00109206.1 (mouse) (UniProt Q9D6K5)
[3] = target: Mrpl14_IPI:IPI00133778.1 (mouse) (UniProt Q9D1I6)
[4] = target: Isca2_IPI:IPI00120671.2 (mouse) (UniProt Q9DCB8)
[5] = target: Arf2_IPI:IPI00135730.1 (mouse) (UniProt Q8BSL7)
[6] = target: Fabp5_IPI:IPI00114162.3 (mouse) (UniProt Q05816)
[7] = target: Coq3_IPI:IPI00467124.2 (mouse) (UniProt Q8BMS4)
Coq3_IPI:IPI00467124.2 (mouse), sequence (Q8BMS4 87-370 limits assumed): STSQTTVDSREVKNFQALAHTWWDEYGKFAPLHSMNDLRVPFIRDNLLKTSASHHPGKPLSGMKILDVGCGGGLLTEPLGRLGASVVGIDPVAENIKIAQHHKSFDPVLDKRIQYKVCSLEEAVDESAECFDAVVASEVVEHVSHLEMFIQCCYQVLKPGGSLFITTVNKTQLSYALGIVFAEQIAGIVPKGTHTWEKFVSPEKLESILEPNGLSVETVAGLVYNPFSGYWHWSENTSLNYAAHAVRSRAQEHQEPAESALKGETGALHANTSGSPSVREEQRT

[8] = target: Uqcrq_IPI:IPI00224210.5 (mouse) (UniProt Q9CQ69)
Uqcrq_IPI:IPI00224210.5 (mouse), sequence (Q9CQ69 whole entry): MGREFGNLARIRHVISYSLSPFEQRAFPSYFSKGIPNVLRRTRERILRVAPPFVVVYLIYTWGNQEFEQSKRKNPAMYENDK

[9] = target: Acp6_IPI:IPI00624175.1 (mouse) (UniProt Q8BP40)
Acp6_IPI:IPI00624175.1 (mouse), sequence (Q8BP40 26-418 limits assumed): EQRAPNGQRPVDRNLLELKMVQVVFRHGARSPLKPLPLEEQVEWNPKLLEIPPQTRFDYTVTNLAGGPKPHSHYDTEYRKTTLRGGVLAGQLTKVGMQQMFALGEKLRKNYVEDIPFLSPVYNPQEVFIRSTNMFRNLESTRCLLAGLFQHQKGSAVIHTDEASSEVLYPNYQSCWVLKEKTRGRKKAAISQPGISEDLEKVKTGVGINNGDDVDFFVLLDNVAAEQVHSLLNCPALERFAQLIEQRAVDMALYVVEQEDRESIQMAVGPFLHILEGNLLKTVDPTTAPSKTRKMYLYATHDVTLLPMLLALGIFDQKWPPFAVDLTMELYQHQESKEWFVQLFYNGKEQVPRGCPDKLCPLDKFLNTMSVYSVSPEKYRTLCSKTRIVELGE

[10] = target: Uqcrb_IPI:IPI00132347.1 (mouse) (UniProt Q9D855)
Uqcrb_IPI:IPI00132347.1 (mouse), sequence (Q9D855 2-111 limits assumed): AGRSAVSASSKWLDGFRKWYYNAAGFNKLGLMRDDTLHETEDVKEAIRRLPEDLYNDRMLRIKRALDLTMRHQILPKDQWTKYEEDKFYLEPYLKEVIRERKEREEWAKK

[11] = target: Rhot1_IPI:IPI00123186.4 (mouse) (UniProt Q8BG51)
Rhot1_IPI:IPI00123186.4 (mouse), sequence (Q8BG51 whole entry): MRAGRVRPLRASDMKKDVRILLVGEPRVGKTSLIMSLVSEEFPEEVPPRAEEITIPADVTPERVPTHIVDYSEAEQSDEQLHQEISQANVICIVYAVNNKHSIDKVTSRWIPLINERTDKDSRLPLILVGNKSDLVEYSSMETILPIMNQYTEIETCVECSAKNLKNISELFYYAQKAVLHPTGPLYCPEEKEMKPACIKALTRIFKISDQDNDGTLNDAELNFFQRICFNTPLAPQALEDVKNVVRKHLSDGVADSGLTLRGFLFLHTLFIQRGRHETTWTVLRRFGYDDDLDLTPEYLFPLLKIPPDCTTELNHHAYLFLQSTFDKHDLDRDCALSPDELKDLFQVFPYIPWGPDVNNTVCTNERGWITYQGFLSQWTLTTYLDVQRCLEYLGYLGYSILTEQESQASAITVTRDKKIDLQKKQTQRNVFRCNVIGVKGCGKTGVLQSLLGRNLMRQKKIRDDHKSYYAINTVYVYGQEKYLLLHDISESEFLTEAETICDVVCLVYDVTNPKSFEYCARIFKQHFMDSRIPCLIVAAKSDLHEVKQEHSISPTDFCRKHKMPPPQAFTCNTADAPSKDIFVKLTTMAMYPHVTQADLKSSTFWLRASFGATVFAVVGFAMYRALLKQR

[12] = target: Rab5b_IPI:IPI00116563.2 (mouse) (UniProt P61021)
Rab5b_IPI:IPI00116563.2 (mouse), sequence (P61021 2-215 limits assumed): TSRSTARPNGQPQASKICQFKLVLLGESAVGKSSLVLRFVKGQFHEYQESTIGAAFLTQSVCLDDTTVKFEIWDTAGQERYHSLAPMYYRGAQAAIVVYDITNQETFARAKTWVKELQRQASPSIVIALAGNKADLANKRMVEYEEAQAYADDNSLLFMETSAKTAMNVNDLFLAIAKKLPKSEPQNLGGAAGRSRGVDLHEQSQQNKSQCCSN

[13] = target: Mtx1_IPI:IPI00112327.1 (mouse) (UniProt P47802)
Mtx1_IPI:IPI00112327.1 (mouse), sequence (P47802 whole entry): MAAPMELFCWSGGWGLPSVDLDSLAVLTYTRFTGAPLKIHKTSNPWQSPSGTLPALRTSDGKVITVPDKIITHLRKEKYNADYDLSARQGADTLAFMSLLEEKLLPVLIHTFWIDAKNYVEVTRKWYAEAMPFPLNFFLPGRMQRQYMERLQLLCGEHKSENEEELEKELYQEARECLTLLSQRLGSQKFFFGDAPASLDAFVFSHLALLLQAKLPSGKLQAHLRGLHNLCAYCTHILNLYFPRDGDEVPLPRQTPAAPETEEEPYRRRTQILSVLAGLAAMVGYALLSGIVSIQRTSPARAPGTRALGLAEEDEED

[14] = target: Mthfd1l_IPI:IPI00228113.5 (mouse) (UniProt Q3V3R1)
Mthfd1l_IPI:IPI00228113.5 (mouse), sequence (Q3V3R1 32-977 limits assumed): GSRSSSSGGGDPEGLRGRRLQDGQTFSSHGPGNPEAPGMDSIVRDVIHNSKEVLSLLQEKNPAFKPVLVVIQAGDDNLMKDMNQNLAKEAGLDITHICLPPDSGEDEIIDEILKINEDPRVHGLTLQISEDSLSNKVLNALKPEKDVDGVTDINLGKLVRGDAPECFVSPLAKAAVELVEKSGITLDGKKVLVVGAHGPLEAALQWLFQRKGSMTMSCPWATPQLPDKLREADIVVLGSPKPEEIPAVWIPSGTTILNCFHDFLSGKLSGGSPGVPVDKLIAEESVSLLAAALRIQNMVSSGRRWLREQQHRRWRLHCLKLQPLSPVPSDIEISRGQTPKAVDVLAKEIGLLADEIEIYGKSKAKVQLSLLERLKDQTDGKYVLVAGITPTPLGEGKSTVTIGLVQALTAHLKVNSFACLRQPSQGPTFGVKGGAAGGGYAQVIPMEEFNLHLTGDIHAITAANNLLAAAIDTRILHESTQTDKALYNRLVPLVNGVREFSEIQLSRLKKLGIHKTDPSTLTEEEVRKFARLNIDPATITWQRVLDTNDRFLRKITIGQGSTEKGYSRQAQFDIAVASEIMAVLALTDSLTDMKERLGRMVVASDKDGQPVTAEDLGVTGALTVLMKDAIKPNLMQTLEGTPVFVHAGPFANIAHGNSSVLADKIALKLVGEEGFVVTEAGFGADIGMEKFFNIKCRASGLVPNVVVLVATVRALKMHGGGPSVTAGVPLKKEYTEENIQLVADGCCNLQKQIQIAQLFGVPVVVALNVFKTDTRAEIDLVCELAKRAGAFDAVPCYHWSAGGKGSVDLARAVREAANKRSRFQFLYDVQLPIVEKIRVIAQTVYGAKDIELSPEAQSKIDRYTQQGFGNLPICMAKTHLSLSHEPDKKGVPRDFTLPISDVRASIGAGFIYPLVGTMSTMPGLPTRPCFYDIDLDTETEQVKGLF

[15] = target: Sccpdh_IPI:IPI00153266.1 (mouse) (UniProt Q8R127)
Sccpdh_IPI:IPI00153266.1 (mouse), sequence (Q8R127 2-429 limits assumed): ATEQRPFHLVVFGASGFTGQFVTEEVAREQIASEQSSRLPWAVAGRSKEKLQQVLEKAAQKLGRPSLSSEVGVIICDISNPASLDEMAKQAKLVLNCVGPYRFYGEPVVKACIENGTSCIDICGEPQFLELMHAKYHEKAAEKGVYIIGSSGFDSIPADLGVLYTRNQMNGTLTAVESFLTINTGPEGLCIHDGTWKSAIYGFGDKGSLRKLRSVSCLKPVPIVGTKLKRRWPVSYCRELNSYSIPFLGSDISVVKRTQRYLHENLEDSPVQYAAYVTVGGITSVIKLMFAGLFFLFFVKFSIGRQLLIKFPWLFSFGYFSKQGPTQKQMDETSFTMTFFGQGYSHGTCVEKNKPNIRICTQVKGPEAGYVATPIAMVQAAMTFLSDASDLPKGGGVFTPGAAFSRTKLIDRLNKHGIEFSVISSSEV

[16] = target: Stoml2_IPI:IPI00115117.1 (mouse) (UniProt Q99JB2)
Stoml2_IPI:IPI00115117.1 (mouse), sequence (Q99JB2 29-353 limits assumed): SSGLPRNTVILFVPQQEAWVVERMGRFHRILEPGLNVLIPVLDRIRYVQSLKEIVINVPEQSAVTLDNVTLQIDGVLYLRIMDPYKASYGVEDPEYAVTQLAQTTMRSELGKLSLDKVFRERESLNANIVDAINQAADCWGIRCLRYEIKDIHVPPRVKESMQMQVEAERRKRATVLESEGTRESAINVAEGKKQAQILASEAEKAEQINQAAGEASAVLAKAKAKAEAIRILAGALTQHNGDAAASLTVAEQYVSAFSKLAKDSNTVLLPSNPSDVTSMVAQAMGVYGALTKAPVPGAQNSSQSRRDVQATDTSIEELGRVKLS

Synj2bp_IPI:IPI00109206.1 (mouse), sequence (Q9D6K5 whole entry): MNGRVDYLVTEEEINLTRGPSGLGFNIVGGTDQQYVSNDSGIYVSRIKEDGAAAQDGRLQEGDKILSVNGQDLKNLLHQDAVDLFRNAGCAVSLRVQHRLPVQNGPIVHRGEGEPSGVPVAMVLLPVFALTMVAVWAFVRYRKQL
Mrpl14_IPI:IPI00133778.1 (mouse), sequence (Q9D1I6 31-145 limits assumed): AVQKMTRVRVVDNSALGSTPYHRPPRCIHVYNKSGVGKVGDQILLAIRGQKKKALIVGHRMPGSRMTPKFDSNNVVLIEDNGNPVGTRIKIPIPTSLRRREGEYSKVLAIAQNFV
Arf2_IPI:IPI00135730.1 (mouse), sequence (Q8BSL7 2-181 limits assumed): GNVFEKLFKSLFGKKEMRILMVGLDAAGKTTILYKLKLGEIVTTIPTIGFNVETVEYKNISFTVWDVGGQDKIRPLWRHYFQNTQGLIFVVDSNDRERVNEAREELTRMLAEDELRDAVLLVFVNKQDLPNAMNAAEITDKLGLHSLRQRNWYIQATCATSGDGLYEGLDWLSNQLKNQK
Fabp5_IPI:IPI00114162.3 (mouse), sequence (Q05816 2-135 limits assumed): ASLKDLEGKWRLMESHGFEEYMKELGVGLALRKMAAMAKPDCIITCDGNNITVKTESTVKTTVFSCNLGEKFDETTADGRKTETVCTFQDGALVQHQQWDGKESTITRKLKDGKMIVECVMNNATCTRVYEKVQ
Isca2_IPI:IPI00120671.2 (mouse), sequence (Q9DCB8 9-154 limits assumed): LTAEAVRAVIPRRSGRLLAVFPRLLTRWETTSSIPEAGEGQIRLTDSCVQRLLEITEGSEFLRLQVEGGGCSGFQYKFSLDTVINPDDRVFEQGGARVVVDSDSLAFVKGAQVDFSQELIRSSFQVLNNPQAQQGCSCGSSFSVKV
Fis1_IPI:IPI00132217.1 (mouse), sequence (Q9CQ92 whole entry): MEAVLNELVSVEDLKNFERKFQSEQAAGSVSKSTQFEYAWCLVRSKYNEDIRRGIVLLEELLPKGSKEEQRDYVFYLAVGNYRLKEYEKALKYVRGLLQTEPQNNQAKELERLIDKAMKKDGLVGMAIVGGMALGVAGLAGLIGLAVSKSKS

Q: Which No. of total peptides [1] does the source give for “GST-Httex1-97Q (from UniProt P08515 1-218; P42858 1-88)” here?
A: Its No. of total peptides is 2 peptides.

Q: And the No. of unique peptides [1]?
A: Its No. of unique peptides is 2 peptides.

Q: What about the No. of total peptides [2] of the same substance?
A: The No. of total peptides was 1 peptides.

Q: What about the No. of unique peptides [2] of the same substance?
A: Its No. of unique peptides is 1 peptides.

Q: And the No. of total peptides [3]?
A: Its No. of total peptides is 4 peptides.

Q: What about the No. of unique peptides [3] of the same substance?
A: The No. of unique peptides was 3 peptides.

Q: What about the No. of total peptides [4] of the same substance?
A: Its No. of total peptides is 3 peptides.

Q: And the No. of unique peptides [4]?
A: Its No. of unique peptides is 3 peptides.

Q: And the No. of total peptides [5]?
A: Its No. of total peptides is 3 peptides.

Q: What about the No. of unique peptides [5] of the same substance?
A: Its No. of unique peptides is 3 peptides.

Q: And the No. of total peptides [6]?
A: Its No. of total peptides is 1 peptides.

Q: And the No. of unique peptides [6]?
A: The No. of unique peptides was 1 peptides.

Q: What about the No. of total peptides [7] of the same substance?
A: The No. of total peptides was 2 peptides.

Q: And the No. of unique peptides [7]?
A: The No. of unique peptides was 1 peptides.

Q: What about the No. of total peptides [8] of the same substance?
A: Its No. of total peptides is 1 peptides.

Q: And the No. of unique peptides [8]?
A: Its No. of unique peptides is 1 peptides.

Q: And the No. of total peptides [9]?
A: The No. of total peptides was 2 peptides.

Q: What about the No. of unique peptides [9] of the same substance?
A: The No. of unique peptides was 2 peptides.

Q: What about the No. of total peptides [10] of the same substance?
A: The No. of total peptides was 1 peptides.

Q: What about the No. of unique peptides [10] of the same substance?
A: The No. of unique peptides was 1 peptides.

Q: And the No. of total peptides [11]?
A: Its No. of total peptides is 1 peptides.

Q: What about the No. of unique peptides [11] of the same substance?
A: Its No. of unique peptides is 1 peptides.

Q: What about the No. of total peptides [12] of the same substance?
A: The No. of total peptides was 1 peptides.

Q: And the No. of unique peptides [12]?
A: The No. of unique peptides was 1 peptides.

Q: And the No. of total peptides [13]?
A: Its No. of total peptides is 3 peptides.

Q: What about the No. of unique peptides [13] of the same substance?
A: Its No. of unique peptides is 3 peptides.

Q: And the No. of total peptides [14]?
A: The No. of total peptides was 2 peptides.

Q: And the No. of unique peptides [14]?
A: Its No. of unique peptides is 2 peptides.

Q: And the No. of total peptides [15]?
A: The No. of total peptides was 1 peptides.

Q: What about the No. of unique peptides [15] of the same substance?
A: The No. of unique peptides was 1 peptides.

Q: And the No. of total peptides [16]?
A: Its No. of total peptides is 1 peptides.

Q: And the No. of unique peptides [16]?
A: Its No. of unique peptides is 1 peptides.
